In patent US12559863B2, “Macrocyclic modulators of disease associated protein misfolding and aggregation” (RESQ BIOTECH, priority 2017, dated 2026):

Target: T1, Aβ42-GFP (Homo sapiens, UniProt P05067)
T1 construct: a chimeric fusion of the human Aβ(1-42) peptide (Aβ42) with GFP; expressed in transfected cells; host or cells: E. coli BL21(DE3)
Assay: High-throughput sequencing of pSICLOPPS vectors isolated after bacterial sorting for enhanced Aβ42-GFP fluorescence
Conditions: for Reads/Total TXXXR reads (%) / Reads/Total pentapeptide reads (%) / Reads/Total peptide reads (%): after the second round of bacterial sorting; for Reads/Total TXXXR reads (%): relative to total TXXXR reads; for Reads/Total pentapeptide reads (%): relative to total pentapeptide reads; for Reads/Total peptide reads (%): relative to total peptide reads; for Number of reads: high-throughput sequencing of isolated pSICLOPPS-NuX1X2X3-X5 vectors after the second round of bacterial sorting for enhanced Aβ42-GFP fluorescence, selected cyclo-TXXXR pentapeptides
From the text: On the other hand, very few bioactive sequences resembling AβC5-34 should exist. […] The peptide-encoding vectors contained in these clones were isolated and the peptide-encoding region of approximately 5.6 million of these plasmids was sequenced using an Ion Torrent high-throughput sequencing platform. […] First, pentapeptides were the dominant peptide species within the sorted pool (FIG. 12D), in agreement with previous observations (FIG. 8G). Second, the most prevalent motif among the selected pentapeptide sequences were TXXXR pentapeptides (˜47% of the selected pentapeptide-encoding pSICLOPPS plasmids; ˜42% of the unique selected pentapeptide sequences) (Table 1), in accordance with previous observations (FIG. 8G). […] At position 2, Thr, Ala, and Val were preferred, while aromatic residues (Phe, Trp, Tyr) were completely excluded from the selected TXXXR peptide pool, in full agreement with our site-directed mutagenesis studies. At the highly variable position 3, the complete absence of the negatively charged amino acids Glu and Asp among the selected sequences was notable (FIG. 12E). […] It is noteworthy, that Lys and Gln residues were practically absent from all positions, while the β sheet-breaking amino acid Pro that is typically included in designed peptide-based inhibitors of amyloid aggregation appeared with strikingly low frequencies (FIG. 12E).
Electrocompetent E. coli BL21(DE3) cells (Novagen, USA) carrying either the expression vector pETSOD1(A4V)-GFP, which produces SOD1(A4V)-GFP under control of the strong bacteriophage T7 promoter, or pETAβ42-GFP, which produces Aβ42-GFP under control of the T7 promoter, were co-transformed with the combined pSICLOPPS-NuX1X2X3-X5 vector library. Approximately 10^8 transformants carrying both the vector library and either pETSOD1(A4V)-GFP or pETAβ42-GFP vectors were harvested, pooled together, and grown in Luria-Bertani (LB) liquid medium containing either 0.005% (pETSOD1(A4F)-GFP) or 0.002% (pETAβ42-GFP) L-arabinose—the inducer of cyclic peptide production—at 37° C. with shaking. When the optical density at 600 nm (OD600) of the bacterial culture was about 0.5, 0.01 (pETSOD1(A4F)-GFP) or 0.1 (pETAβ42-GFP) mM isopropyl-β-D-thiogalactoside (IPTG) was added to the medium to induce overexpression of the reporter. […] The isolated cells were re-grown and screened for additional rounds in an identical manner until the desired enrichment in high-fluorescence clones was achieved.
For the characterization of the initial libraries, a combined pSICLOPPS-NuX1X2X3-X5 vector library was prepared containing approximately equal amounts of each one of the tetra-, penta- and hexapeptide sub-libraries. These samples were digested with NcoI and BsrGI and the resulting ˜250 bp product that contained the variable peptide-encoding region was isolated. High-throughput sequencing analysis was performed using an Ion Torrent high-throughput sequencing platform. From the obtained data, all the sequences with mismatches outside of the variable peptide-encoding region were removed, and only the 12-, 15- or 18-bp-long peptide-encoding sequences were subjected to further analysis. The libraries of the selected cyclic peptides that enhance either SOD1(A4V)-GFP or Aβ42-GFP fluorescence were sequenced in a similar manner, with the only exception being that all sequences including stop codons were discarded from subsequent analysis.

| Substance | Reads/Total TXXXR reads (%) | Reads/Total pentapeptide reads (%) | Reads/Total peptide reads (%) | Number of reads |
| --- | --- | --- | --- | --- |
| AβC5-89 (TATDR; cyclic) | 0.420 | 0.197 | 0.176 | 7,984 |
| AβC5-94 (TVLFR; cyclic) | 0.391 | 0.183 | 0.164 | 7,442 |
| AβC5-102 (TTYNR; cyclic) | 0.319 | 0.149 | 0.134 | 6,067 |
| AβC5-105 (TVRWR; cyclic) | 0.287 | 0.134 | 0.120 | 5,450 |
| AβC5-117 (TTRCR; cyclic) | 0.223 | 0.104 | 0.094 | 4,237 |
| AβC5-118 (TTFWR; cyclic) | 0.222 | 0.104 | 0.093 | 4,216 |
| AβC5-121 (TIKDR; cyclic) | 0.209 | 0.098 | 0.088 | 3,970 |
| AβC5-123 (TTVHR; cyclic) | 0.177 | 0.083 | 0.074 | 3,371 |
| AβC5-126 (TTLLR; cyclic) | 0.159 | 0.074 | 0.067 | 3,016 |
| AβC5-129 (TTLFR; cyclic) | 0.138 | 0.065 | 0.058 | 2,630 |
| AβC5-130 (TAYHR; cyclic) | 0.136 | 0.064 | 0.057 | 2,594 |
| AβC5-136 (TALHR; cyclic) | 0.107 | 0.050 | 0.045 | 2,026 |
| AβC5-139 (TTSPR; cyclic) | 0.100 | 0.047 | 0.042 | 1,904 |
| AβC5-146 (TTWSR; cyclic) | 0.085 | 0.040 | 0.036 | 1,612 |
| AβC5-147 (TAMHR; cyclic) | 0.085 | 0.040 | 0.036 | 1,611 |
| AβC5-155 (TSLDR; cyclic) | 0.066 | 0.031 | 0.028 | 1,251 |

| Substance | Reads/Total TXXXR reads (%) | Reads/Total pentapeptide reads (%) | Reads/Total peptide reads (%) | Number of reads |
| --- | --- | --- | --- | --- |
| AβC5-158 (TTGAR; cyclic) | 0.062 | 0.029 | 0.026 | 1,172 |
| AβC5-162 (TSVWR; cyclic) | 0.058 | 0.027 | 0.024 | 1,094 |
| AβC5-173 (TTHAR; cyclic) | 0.050 | 0.023 | 0.021 | 953 |
| AβC5-176 (TAGWR; cyclic) | 0.050 | 0.023 | 0.021 | 945 |
| AβC5-177 (TATAR; cyclic) | 0.049 | 0.023 | 0.020 | 925 |
| AβC5-184 (TVLAR; cyclic) | 0.043 | 0.020 | 0.018 | 818 |
| AβC5-185 (TTFNR; cyclic) | 0.042 | 0.020 | 0.018 | 800 |
| AβC5-188 (TGMRR; cyclic) | 0.040 | 0.019 | 0.017 | 768 |
| AβC5-190 (TLCLR; cyclic) | 0.039 | 0.018 | 0.016 | 739 |
| AβC5-215 (TTPWR; cyclic) | 0.028 | 0.013 | 0.012 | 524 |
| AβC5-218 (TVLHR; cyclic) | 0.026 | 0.012 | 0.011 | 497 |
| AβC5-223 (TGLDR; cyclic) | 0.024 | 0.011 | 0.010 | 464 |
| AβC5-239 (TTMHR; cyclic) | 0.020 | 0.009 | 0.008 | 384 |
| AβC5-242 (TTSTR; cyclic) | 0.020 | 0.009 | 0.008 | 376 |
| AβC5-244 (TTRVR; cyclic) | 0.019 | 0.009 | 0.008 | 366 |
| AβC5-245 (TTRFR; cyclic) | 0.019 | 0.009 | 0.008 | 364 |
